The chains are these.
B1: Guanine nucleotide-binding protein G(i) subunit alpha-3, P08753 (parent)
chain: MGCTLSAEDKAAVERSKMIDRNLREDGEKAAKEVKLLLLGAGESGKSTIVKQMKIIHEDGYSEDECKQYKVVVYSNTIQSIIAIIRAMGRLKIDFGEAARADDARQLFVLAGSAEEGVMTSELAGVIKRLWRDGGVQACFSRSREYQLNDSASYYLNDLDRISQTNYIPTQQDVLRTRVKTTGIVETHFTFKELYFKMFDVGGQRSERKKWIHCFEGVTAIIFCVALSDYDLVLAEDEEMNRMHESMKLFDSICNNKWFTDTSIILFLNKKDLFEEKIKRSPLTICYPEYTGSNTYEEAAAYIQCQFEDLNRRKDTKEVYTHFTCATDTKNVQFVFDAVTDVIIKNNLKECGLY

As a reminder, the Tm is the temperature at the midpoint of the melting transition.

Several values for one entry are separate records, joined by “and”; a condition that tells them apart may be missing. Equal entries are not always repeated.

One data set covers variants of B1. The note with it: Rattus norvegicus; pH 7.5; Thermal; Fluorescence; HEPES; NaCl MgCl2 50000 2000; transition: 2; reversible: yes; structure 6MHE; whole UniProt chain shown.
Consider MGCTLSAEDKAAVERSKMIDRNLREDGEKAAKEVKLLLLGAGESGKSTIVKQMKIIHEDGYSEDECKQYKVVVYSNTIQSIIAIIRAMGRLKIDFGEAARADDARQLFVLAGSAEEGVMTSELAGVIKRLWRDGGVQACFSRSREYQLNDSASYYLNDLDRISQTNYIPTQQDVLRTRVKTTGIVETHFTFKELYFKMFDVGGQRSERKKWIHCFEGVTAIIFCVALSDYDLVLAEDEEMNRMHESMKLFDSICNNKWFTDTSIILFLNKKDLFEEKIKRSPLTICYPEYTGSNTYEEAAAYIQCQFEDLNRRKDTKEVYTHFTCSTDTKNVQFVFDAVTDVIIKNNLKECGLY [A326S], for which the Tm is 64 °C and 62.5 °C.

Consider MGCTLSAEDKAAVERSKMIDRNLREDGEKAAKEVKLLLLGAGESGKSTIVKQMKIIHEDGYSEDECKQYKVVVYSNTIQSIIAIIRAMGRLKIDFGEAARADDARQLFVLAGSAEEGVMTSELAGVIKRLWRDGGVQACFSRSREYQLNDSASYYLNDLDRISQTNYIPTQQDVLRTRVKTTGIVETHFTFKELYFKMFDVGAQRSERKKWIHCFEGVTAIIFCVALSDYDLVLAEDEEMNRMHESMKLFDSICNNKWFTDTSIILFLNKKDLFEEKIKRSPLTICYPEYTGSNTYEEAAAYIQCQFEDLNRRKDTKEVYTHFTCATDTKNVQFVFDAVTDVIIKNNLKECGLY [G203A], for which the midpoint of thermal melting (Tm) stood at 57.5 °C.

Staying with this data set, now noted: Rattus norvegicus; pH 7.5; Thermal; DSC; HEPES; NaCl MgCl2 50000 2000; transition: 2; reversible: yes; structure 6MHE; whole UniProt chain shown.
On to MGCTLSAEDKAAVERSKMIDRNLREDGEKAAKEVKLLLLGAGESGKSTIVKQMKIIHEDGYSEDECKQYKVVVYSNTIQSIIAIIRAMGRLKIDFGEAARADDARQLFVLAGSAEEGVMTSELAGVIKRLWRDGGVQACFSRSREYQLNDSASYYLNDLDRISQTNYIPTQQDVLRTRVKTTGIVETHFTFKELYFKMFDVGGQRSERKKWIHCFEGVTAIIFCVALSDYDLVLAEDEEMNRMHESMKLFDSICNNKWFTDTSIILFLNKKDLFEEKIKRSPLTICYPEYTGSNTYEEAAAYIQCQFEDLNRRKDTKEVYTHFTCATDAKNVQFVFDAVTDVIIKNNLKECGLY [T329A], for which the Tm worked out at 65 °C.

The values are drawn from FireProtDB (doi:10.1111/febs.14143).
